# Reference: US20190282673A1, “STAPHTAME ACTIVITY ON BIOFILMS” (priority 2016, published 2019)
# Columns and labels:
# [1] = system: S. aureus BK1 biofilms; experiment: Scanning electron microscopy of treated biofilms in microtitre plates; type: cell-based, Staphylococcus aureus; conditions: Gentamycin 50 μg/mL; P128 12.5 μg/mL (lowest concentration tested)
# Procedure: MRSA strain BK1 or MW2 was used for studying biofilm eradication activity of P128 by SEM. For this, biofilms formed in microtitre plates or on the surface of catheters were treated with increasing concentrations of P128 or antibiotics and subjected to SEM. S. aureus BK1 or MW2 was revived on blood agar plates and the culture was grown overnight in TSB supplemented with 20% glucose. The overnight-grown culture was diluted 1:50 in TSB with 2% glucose to achieve OD600=˜0.1. 200 μL of the diluted culture was aliquoted into each well of the 96 well plate and incubated at 37° C. under static conditions for 18 h. After incubation the contents were aspirated, washed twice with 200 μL of PBS, and 100 μL of media+100 μL of drug were added to each well and incubated again at 37° C. for 18 h. The contents were aspirated, washed with 200 μL of PBS and allowed to dry at 37° C. for 15 min. The individual wells were cut out and biofilms visualized by SEM.
# [2] = system: S. aureus stationary phase cells; experiment: P128 activity on stationary phase cells (CFU); type: cell-based, Staphylococcus aureus; conditions: for CFU/mL, P128 treated: 10 μg/mL P128, 2 h
# Excerpt: Most in vitro studies examining the activity of antibiotics have been performed on rapidly dividing planktonic bacterial cultures supplemented with rich growth media. However, in infections, bacteria seldom encounter optimal conditions that allow logarithmic growth. It is likely that stationary-phase or non dividing bacteria are common in many persistent Staphylococcus infections such as endocarditis and osteomyelitis and in biofilm-associated infections (e.g., on catheters, grafts, and foreign bodies). Therefore, activity of P128 was determined on stationary phase cells of three S. aureus strains, three S. epidermidis, and two each of S. lugdunensis and S. haemolyticus strains. Briefly, the test cultures were grown overnight in LB (˜10^9 cells), centrifuged, pellet was washed and resuspended in saline. Optical density (OD600) was adjusted to 0.2 (˜10^8 CFU/mL). 100 μL of these cells were treated with 10 μg/mL P128 (in saline) and incubated at 37° C. for 2 h, 200 rpm, cell controls without proteins were maintained. Following incubation, the volume was made up to 1 mL with saline, serially log diluted in saline and plated on LB agar. Incubated at 37° C. for 18 h to enumerate residual CFU to determine cell killing.
# [3] = system: S. epidermidis; experiment: P128 MIC in CAMHB and serum; type: cell-based, Staphylococcus epidermidis
# [4] = system: MRSA MW2; experiment: Rat model of infective endocarditis; type: in vivo, Wistar albino rats; conditions: described in present tense, no data
# Excerpt: A rat model of infective endocarditis is used. Fernandez, et al. (2012). Synergistic activity of ceftobiprole and vancomycin in a rat model of infective endocarditis caused by methicillin-resistant and glycopeptide-intermediate Staphylococcus aureus. Antimicrob Agents Chemother. 56(3):1476-84. Female Wistar albino rats are operated under ketamine and xylazine anaesthesia Right carotid artery is cannulated and polyethylene catheter is placed near the […]. Two days later, animals are challenged with MRSA MW2 through tail vein. Twenty four hours post-challenge, animals are treated with appropriate doses of P128 (IV bolus or infusion) or standard of care antibiotics (e.g., vancomycin, daptomycin, linezolid, oxacillin, etc.) or both. Animals are euthanized at appropriate time after the last dosing, vegetations are collected and bacterial load is determined.
molecule,measurement,setting,value
"P128: anti-staphylococcal chimeric protein: phage tail associated muralytic enzyme (TAME) cell wall-degrading region plus staphylococcus-specific binding region; SEQ ID NO: 1 (protein, P128 chimera) MSLDSLKKYNGKLPKHDPSFVQPGNRHYKYQCTWYAYNRRGQLGIPVPLWGDAADWIGGAKGAGYGVGRTPKQGACVIWQRGVQGGSPQYGHVAFVEKVLDGGKKIFISEHNYATPNGYGTRTIDMSSAIGKNAQFIYDKKLETPNTGWKTNKYGTLYKSESASFTPNTDIITRTTGPFRSMPQSGVLKAGQTIHYDEVMKQDGHVWVGYTGNSGQRIYLPVRTWNKSTNTLGVLWGTIK",Effect on biofilm by SEM,[1],destroyed the biofilm structure and lysed the bacterial cells completely
same,"CFU/mL, P128 treated",[2]; S. aureus B9377 stationary phase,3 × 10^2 CFU/mL
same,"CFU/mL, P128 treated",[2]; S. aureus BK18 stationary phase,1 × 10^1 CFU/mL
same,"CFU/mL, P128 treated",[2]; S. aureus BK31 stationary phase,3.5 × 10^1 CFU/mL
same,"Drop in CFU, stationary cells","[2]; S. aureus, S. epidermidis, S. lugdunensis and S. haemolyticus",Three to five log drop in CFU
same,Fold reduction in serum MIC,[3]; S. epidermidis B9470,32 fold
same,MIC of P128 in CAMHB,[3]; S. epidermidis B9470,4 μg/ml and (0.14) μM
same,MIC of P128 in Serum,[3]; S. epidermidis B9470,0.12 μg/ml and (0.004) μM
same,Fold reduction in serum MIC,[3]; S. epidermidis B9473,4 fold
same,MIC of P128 in CAMHB,[3]; S. epidermidis B9473,16 μg/ml and (0.58) μM
same,MIC of P128 in Serum,[3]; S. epidermidis B9473,4 μg/ml and (0.14) μM
same,24 h P128 MIC for serum time-kill,"[3]; S. epidermidis, fetal calf serum",0.25 µg/mL
same,CFU reduction in vegetations,[4],Significantly higher CFU reduction
